In PMC12283126, “The Pseudomonas aeruginosa Type VI secretion system toxin Tse8 evolved from a novel N-carbamoylputrescine amidohydrolase” (Biochemical Journal, 2025):

Columns and labels:
Assay in all cases: ammonia release, indophenol blue, OD640; Michaelis-Menten fit
Settings in all cases: 50 mM MES-NaOH pH 7.0, 1 mM DTT, 40 °C, 30 min, 10 nM enzyme
[1] = substrate: NCCCCNC(N)=O; assay type: biochemical, Pseudomonas aeruginosa
Text: ammonia release, indophenol blue, OD640; Michaelis-Menten fit on P. aeruginosa NCPAH/AguB (PaAguB)

[2] = substrate: NCCCCNC(N)=O; assay type: biochemical, Shewanella oneidensis
Text: ammonia release, indophenol blue, OD640; Michaelis-Menten fit on Shewanella oneidensis AguY (SoAguY)

[3] = substrate: NCCCCNC(N)=O; assay type: biochemical, Microterricola gilva
Text: ammonia release, indophenol blue, OD640; Michaelis-Menten fit on Microterricola gilva AguY (MgAguY)

B1: P. aeruginosa NCPAH/AguB (PaAguB) (Pseudomonas aeruginosa PAO1) (protein)
chain: MTRNVTVAATQMACSWDRPANIARAEKLVRQAAARGAQIILIQELFETPYFCQKPNPDYLQLATTVEENAAIAHFQALARELQVVLPISFFERAGRARFNSIAVIDADGGNLGVYRKSHIPDGPGYHEKYYFNPGDTGFKVWQTRYARIGVGICWDQWFPESARSMALLGAELLFYPTAIGSEPHDASISSRDHWQRVQQGHAGANLMPLVASNRIGREEQDGYDITFYGSSFIADPFGEKVEELNRTEEGILVHTFDLDALERTRSAWGVFRDRRPNLYGPLKTLDGSLES
notes: full length, 292 aa, 32,780 Da; purified recombinant, codon-optimised synthetic gene, expressed in E. coli
- Km [1]: 660 ± 110 µM
- kcat [1]: 54.1 ± 3 s⁻¹
- kcat/Km [1]: 82500 ± 8800 M⁻¹ s⁻¹

B2: Shewanella oneidensis AguY (SoAguY) (Shewanella oneidensis MR-1) (protein)
chain: MFEVTEVSIAELRAALESGRTTVVELVKSYLARVAAYDGPATETKLNALVVHNPDALKEAEASDARRARGETLSPLDGIPYTAKDSYLVKGLTAASGSPAFKDLVAQYDAFAVERLRAAGAICLGKTNMPPMANGGMQRGHYGRAESPYNAEYLTAPFASGSSNGAGTGTAASYSAFGLAEETWSSGRGPASNNGLCAYTPSRGVISVRGNWPLTPTMDVVVPYTRTMADMLEVLDVIVADDPITRGDLWRLQPWVQIPKASTVRPESYLALAASADTLKGKRFGVPRMYINKDELAGTSENPGIGGPTGQRIHTRQSVIDLWEAARKALEAAGAEVIEVDFPLVSNCEGDRPGAPTVFNRGIVTPQFLHDELWELSGWAFDEFLRANNDPKLNKLEDVVGHLIFPHDLCTLPNREGDLAAGMEEYVNMAKRGLKSFDQIDSIPDGLRGLEKTRKLDLEDWMDGLKLDAVLFPTVADVGPADAHVNPASADIAWSNGVWVANGNLAIRHLGVPTVTVPMGVMADIGMPVGLTFAGRAYDDNNLLKFAGAFESTGNRRIIPPRTPKLGQ
notes: full length, 568 aa, 60,996 Da; purified recombinant, codon-optimised synthetic gene, expressed in E. coli
- Km [2]: 740 ± 130 µM
- kcat [2]: 130 ± 4.5 s⁻¹
- kcat/Km [2]: 179000 ± 28600 M⁻¹ s⁻¹

B3: Microterricola gilva AguY (MgAguY) (Microterricola gilva) (protein)
chain: MTSPTVGKGGIVEAGIDELAAALAAGETSAVALLDAYLARIRAFDAPGTATALNAYVVMNPDARADAEASDARRARGESRGPLDGIPYSAKDSYLAAGLTAAAGSPAFTALIAQQDAFTIERLRTAGAVLIGLTNMPPMANGGMQRGAYGRAESPYNAAWLTAAFGSGSSNGSGTATAASMCAFGLGEETWSSGRAPASNNALCAYTPSRGIISMRGNWPLVPTMDVVVPHTRTMADLLRVLDVIVAEDGDTRGDFWRSQPWLEIPRVDEHRPASYPSLAPTDLAAAQATLRGTRLGVPRMYINGDQDAGTGEPGGIGGPTGQRIETRASVIELWEAARRDLEAAGATVVEVDFPLVSNYEGDRAGAPTITNRGLVSPEFLHTELNDLAAWAWNDFLEMNGDPRLSSLAAVDGERIFPAPPGSLPDRYQGFDDDIADLPRIAAERHWASVEEIEELADGIRGLEHTRAIDFDAWMASNRLDAVVFPAVADVGPADMDVNEASADAGWRNGVWVANGNLVIRHFGIPTVTVPMGLMRDIRMPVGLTFAGLPYDDVALLRLAAAFERTAERRVAPPLSAPPARAHR
notes: full length, 584 aa, 61,738 Da; purified recombinant, codon-optimised synthetic gene, expressed in E. coli; genome has a second AguY paralog
- Km [3]: 70 ± 300 µM
- kcat [3]: 39 ± 1.5 s⁻¹
- kcat/Km [3]: 642000 ± 251000 M⁻¹ s⁻¹
